Assay results from the DeepSol protein solubility set.

test: soluble on expression in E. coli; label from the status in PepcDB or PDB records

Soluble on expression in E. coli, soluble:
MSLMSKPQITIKDIARELGVSPSTVSRALKDNPDISQETRDAIHKYAREHNYKPNVLALNLRTSRSNTIGVIIPQLVHHFFSCVLSGIERTAAEAGYNILVAQSNEEYEREVKIVHSFLAARVCGVITSLAKDTSRYDHYQELLDNNIPIVFYDRICTGINTERVVVDDYAGSFAAVEYMIQTGCKRIFFYSAAPHLEISKNRRNGYMDAMKKYRIPVDQSMIKLCDSREKAIAITPALLERPDHPDGFFAINDETASGILYSCKLTGRKVPDEVSICGFTDGAIAQSTDPKLTTVEQHGEEVGKSTIRLLIDKLEGNDEGKSGNKIVRTNLVVRGTTKEGHHHHHH
MSLMSVVKVGVNGFGTIGRRVALAITLQKDMKLVGVVKRTPDYAALYAASRGIPIYTPTAKEAEEFEKRGIKVGGTLRELLARVDVVVDATPEGQGAKNKPLYREAGVKQVYQGGEKPEVAEASFSTLCNYEESKGRGSLRVVSCNTTGLLRLICTLNREFGVESVRAVLVRRGADPKEVKKGPIDSIVLNPPTLPSHHAVDVRTVLPWLDIKTAAVAVPTTFMHMHHVTLKLAKPVEKREVLETLASAPRIMLVSSGDTGIKSTSQLVDAARLSRMGYDIPELVVFEESVAVDGREVMLFQAVHQESIVVPENIDAIRAVASSPLTLDETLKATDGSLGLRKTLW
MSLNALKREDAANKKLGVLIYENVQPMDVIGPWEVFATWKTILDASIDMFLVAESSNEVCCANQISLKPHCEFNNSPQFDYLLVPGGAGRREQVNNPRLISFLKKQAQNTDYLLSVCTGAFLLHAAGLLTHHEATTYWRAMPELKSFEDVQLVEKRIVKSGKVWTTGGISSGIDLAFEFISTIAGNDVAGKIQLLFEYFPECKLYSQPAMVSELPSYYATKKDEAVLEMNLPDYIKEYFKKSEGHHHHHH
MSLNCFISSYVRGNFYNRGRISAESLRASDDLIFLNVRPNKDGSLSFENPRIFENGKGVTSWEELIKSVRADVKGTKTKLRLGAASGEWKAMVADEAARVAFAKNIKKILEKNKLDGIDLDFEWAETEKEYEDYSLAILKMREVLGDKYVFSVSLHPVCYKISKEAIAAVDFISYQCYGPSPVRFPMEKYCSDIQMALAYGIPKEKLVAGVPFYGVTKDGSKKTEAYFSFVQDGLITGPAQNEVTYKGDVYVFDGQNNIRAKTRYAMDQQLKGMMSWDLATDMPLNDSRSLFKTMVEELGREGHHHHHH
MSLNGSRRIPQPIRWAMVGGGSQSQIGYIHRCAALRDNTFVLVAGAFDIDPIRGSAFGEQLGVDSERCYADYLSMFEQEARRADGIQAVSIATPNGTHYSITKAALEAGLHVVCEKPLCFTVEQAENLRELSHKHNRIVGVTYGYAGHQLIEQAREMIAAGELGDVRMVHMQFAHGFHSAPVEAQSQATQWRVDPRQAGPSYVLGDVGTHPLYLSEVMLPDLKIKRLMCSRQSFVASRAPLEDNAYTLMEYEGGAMGMVWSSAVNAGSMHGQKIRVIGSRASLEWWDERPNQLSFEVQGQPAQILERGMGYLHPNALIDDRIGGGHPEGLFEAWANLYYRFALAMDATDRSDTQALSAVRYPGIDAGVEGVRWVERCVLSADNDSIWVAYEGHHHHHH
MSLNIMDFNVKKLAADAGTFLSRAVQFTEEKLGQAEKTELDAHLENLLSKAECTKIWTEKIMKQTEVLLQPNPNARIEEFVYEKLDRKAPSRINNPELLGQYMIDAGTEFGPGTAYGNALIKCGETQKRIGTADRELIQTSALNFLTPLRNFIEGDYKTIAKERKLLQNKRLDLDAAKTRLKKAKAAETKSSSEQELRITQSEFDRQAEITRLLLEGISSTHAHHLRCLNDFVEAQMTYYAQCYQYMLDLQKQLGSFPSNYLSNNNQTSGTPVPYALSNAIGPSAQASTGSLVITCPSNLNDLKESSNNRKARVLYDYDAANSTELSLLADEVITVFSVVGMDSDWLMGERGNQKGKVPITYLELLNEGHHHHHH
